Test [1] has as its target human skin (skin keratin) (human). Put plainly: quantitative skin binding test on human keratinocytes, after 10% strength SDS treatment.
Test [2] shares this target. Put plainly: quantitative skin binding test on human keratinocytes in microtiter plates, anti-His antibody, TMB.
Test [3] concerns the target human hair (hair keratin) (human). Put plainly: quantitative hair binding test, anti-polyHis peroxidase conjugate, TMB.
Test [4] has the same target. Put plainly: quantitative hair binding test, after 10% strength SDS treatment.

B1: KBD-B (keratin-binding domain B of human desmoplakin, SEQ ID No.: 166) (protein)
chain: MRGSHHHHHHGSACELEPHTGLLLLSVQKRSMSFQGIRQPVTVTELVDSGILRPSTVNELESGQISYDEVGERIKDFLQGSSCIAGIYNETTKQKLGIYEAMKIGLVRPGTALELLEAQAATGFIVDPVSNLRLPVEEAYKRGLVGIEFKEKLLSAERAVTGYNDPETGNIISLFQAMNKELIEKGHGIRLLEAQIATGGIIDPKESHRLPVDIAYKRGYFNEELSEILSDPSDDTKGFFDPNTEENLTYLQLKERCIKDEETGLCLLPLKEKKKQVQTSQKNTLRKRRVVIVDPETNKEMSVQEGVDLQPSLIS
As for B1, the results for the Absorption at 405 nm (A405 nm (standardized to the surface)) in test [1] and in test [2] were 0.185 and 0.93, respectively.

B2: KBD-D (keratin-binding domain of human plakophilin, SEQ ID No.: 168) (protein)
chain: MRGSHHHHHHGSACELGTMNHSPLKTALAYECFQDQDNSTLALPSDQKMKTGTSGRQRVQEQVMMTVKRQKSKSSQSSTLSHSNRGSMYDGLADNYNYGTTSRSSYYSKFQAGNGSWGYPIYNGTLKREPDNRRFSSYSQMENWSRHYPRGSCNTTGAGSDICFMQKIKASRSEPDLYCDPRGTLRKGTLGSKGQKTTQNRYSFYSTCSGQKAIKKCPVRPPSCASKQDPVYIPPISCNKDLSFGHSRASSKICSEDIECSGLTIPKAVQYLSSQDEKYQAIGAYYIQHTCFQDESAKQQVYQLGGICKLVDLLRSPNQNVQQAAAGALRNLVFRSTTNKLETRRQNGIREAVSLLRRTGNAEIQKQLTGLLWNLSSTDELKEELIADALPVLADRVIIPFSGWCDGNSNMSREVVDPEVFFNATGCLRNLSSADAGRQTMRNYSGLIDSLMAYVQNCVAASRCDDKSVENCMCVLHNLSYRLDAEVPTRYRQLEYNARNAYTEKSSTGCFSNKSDKMMNNNYDCPLPEEETNPKGSGWLYHSDAIRTYLNLMGKSKKDATLEACAGALQNLTASKGLMSSGMSQLIGLKEKGLPQIARLLQSGNSDVVRSGASLLSNMSRHPLLHRVMGNQVFPEVTRLLTSHTGNTSNSEDILSSACYTVRNLMASQPQLAKQYFSSSMLNNIINLCRSSASPKAAEAARLLLSDMWSSKELQGVLRQQGFDRNMLGTLAGANSLRNFTSRF
Turning to B2, the Absorption at 405 nm (A405 nm (standardized to the surface)) in test [1] amounted to 3.15; in test [3] it was 0.88; in test [2], 3.69; in test [4] it was 0.62.

These data come from US20090156485A1.
